For test [1], the target named is T1, human FcγRIIIA (F158) (human, UniProt P08637 17-208).
T1 construct: bought; F158 allele
Briefly: SPR, FcγRIIIA captured. (Surface plasmon resonance follows binding to a sensor surface in real time, without labels.)

Test [2] addresses T2, cynomolgus monkey FcRn (cynomolgus monkey, UniProt Q8SPV9 24-297; Q8SPW0 21-119).
T2 construct: bought; also called cynomolgus FcRn
In words: SPR pH 6.0, FcRn captured.

The target in test [3] is T3, Histidine-tagged recombinant human FcγRI (CD64) (human, UniProt P12314 16-288, limits assumed).
T3 construct: bought
Briefly: SPR, His-FcγRI captured; mean.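 Further: biacore T200 SPR at 25 °C, anti-His surface capturing FcγRI, Fc-variant antibodies injected at 100 µg/mL for 1 min, signal near injection end minus third buffer blank, three repeats.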

In test [4] the target is T3, Histidine-tagged recombinant human …. In words: SPR, His-FcγRI captured; Expt 2.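 Further: biacore T200 SPR at 25 °C, Fc-variant antibodies at 100 µg/mL flowed 1 min over anti-His-captured receptor, signal read near injection end minus third buffer blank; antibody analyte injected at 100 µg/mL for 1 min.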
The target is the same in test [5]. In words: SPR, His-FcγRI captured; Expt 3.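 Further: biacore T200 SPR at 25 °C, Fc-variant antibodies at 100 µg/mL flowed 1 min over anti-His-captured FcγRI, signal taken just before injection end minus a buffer blank cycle; antibody analyte injected at 100 µg/mL for 1 min.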
The target of test [6] is T4, human FcRn (human, UniProt P55899 24-297; P61769 21-119).
T4 construct: bought
T4 sequence (P55899 24-297 limits assumed, chain 1 of 2): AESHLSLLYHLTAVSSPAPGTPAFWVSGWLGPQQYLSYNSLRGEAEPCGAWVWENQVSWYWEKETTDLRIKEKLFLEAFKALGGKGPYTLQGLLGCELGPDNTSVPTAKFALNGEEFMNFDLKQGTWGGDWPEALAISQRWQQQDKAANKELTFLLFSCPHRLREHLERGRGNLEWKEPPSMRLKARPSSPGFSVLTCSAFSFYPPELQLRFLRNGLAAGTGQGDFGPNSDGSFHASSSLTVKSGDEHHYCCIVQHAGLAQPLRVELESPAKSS
T4 sequence (P61769 21-119 limits assumed, chain 2 of 2): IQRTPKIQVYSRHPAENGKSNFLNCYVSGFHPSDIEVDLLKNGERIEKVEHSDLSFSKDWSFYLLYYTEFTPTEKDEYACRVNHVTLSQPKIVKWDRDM
In words: SPR pH 6.0, FcRn captured; Expt 1.

The target of test [7] is T4, human FcRn. In words: SPR pH 6.0, FcRn captured; Expt 2.
For test [8], the target named is T3, Histidine-tagged recombinant human …. Briefly: SPR, His-FcγRI captured; Expt 1 Rep 1.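 Further: antibody analyte injected at 100 µg/mL for 1 min.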
Test [9] shares this target. Briefly: SPR, His-FcγRI captured; Expt 1 Rep 2.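 Further: antibody analyte injected at 100 µg/mL for 1 min.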
Test [10] shares this target. In words: SPR, His-FcγRI captured; Expt 2 Rep 1.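 Further: antibody analyte injected at 100 µg/mL for 1 min.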
The target is the same in test [11]. In words: SPR, receptor captured on anti-His chip.
In test [12] the target is T5, mouse FcγRI (mouse, UniProt P26151 25-297).
T5 construct: bought; captured on anti-histidine chip
T5 sequence (looked up): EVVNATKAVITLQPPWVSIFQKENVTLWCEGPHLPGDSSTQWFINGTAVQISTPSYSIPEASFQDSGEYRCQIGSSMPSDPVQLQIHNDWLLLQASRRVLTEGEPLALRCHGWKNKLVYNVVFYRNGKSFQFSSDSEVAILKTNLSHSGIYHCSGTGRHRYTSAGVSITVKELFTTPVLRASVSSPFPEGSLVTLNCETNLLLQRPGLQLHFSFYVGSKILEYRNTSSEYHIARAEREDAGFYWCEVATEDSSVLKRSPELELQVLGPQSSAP
Briefly: SPR, receptor captured on anti-His chip.

Test [13] concerns the target T6, rat FcγRI (rat, UniProt A0A0B4J2J0 16-285).
T6 construct: bought; captured on anti-histidine chip
T6 sequence: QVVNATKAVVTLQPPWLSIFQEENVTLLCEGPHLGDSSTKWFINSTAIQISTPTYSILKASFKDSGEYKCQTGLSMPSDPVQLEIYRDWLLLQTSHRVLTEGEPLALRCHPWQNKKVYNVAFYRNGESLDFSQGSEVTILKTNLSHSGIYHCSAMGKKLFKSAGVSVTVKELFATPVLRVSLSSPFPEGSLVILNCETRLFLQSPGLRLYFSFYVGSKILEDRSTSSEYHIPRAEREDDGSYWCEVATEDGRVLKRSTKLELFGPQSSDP
In words: SPR, receptor captured on anti-His chip.

In test [14] the target is T7, rabbit FcγRI (rabbit).
T7 construct: bought; captured on anti-histidine chip
Briefly: SPR, receptor captured on anti-His chip.

The target in test [15] is T8, human FcγRIIA (R131) (human, UniProt P12318 34-218, limits assumed).
T8 construct: bought; R131 allele
T8 sequence (looked up): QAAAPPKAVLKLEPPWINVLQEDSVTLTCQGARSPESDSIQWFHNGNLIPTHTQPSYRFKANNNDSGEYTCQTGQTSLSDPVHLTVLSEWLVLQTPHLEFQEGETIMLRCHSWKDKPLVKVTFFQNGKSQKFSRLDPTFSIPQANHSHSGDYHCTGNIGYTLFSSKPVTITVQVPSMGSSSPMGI
In words: SPR, receptor captured on anti-His chip.

The target of test [16] is T9, human FcγRIIB (human, UniProt P31994 43-217).
T9 construct: bought
T9 sequence (looked up): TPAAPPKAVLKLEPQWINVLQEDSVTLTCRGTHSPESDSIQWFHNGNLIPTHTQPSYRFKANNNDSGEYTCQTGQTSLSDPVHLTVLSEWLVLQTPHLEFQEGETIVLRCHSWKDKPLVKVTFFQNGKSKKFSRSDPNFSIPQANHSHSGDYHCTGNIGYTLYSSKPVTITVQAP
Briefly: SPR, receptor captured on anti-His chip.

Test [17] concerns the target T1, human FcγRIIIA (F158). In words: SPR, receptor captured on anti-His chip.
Test [18] concerns the target T10, human FcγRIIIB (NA2 allotype) (human, UniProt O75015 17-200, limits assumed).
T10 construct: bought; NA2 allotype
Briefly: SPR, receptor captured on anti-His chip.

Test [19] has as its target T3, Histidine-tagged recombinant human …. Briefly: SPR, His-FcγRI captured; CHO-produced; Expt 1 Rep 1.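 Further: antibody analyte injected at 100 µg/mL for 1 min.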
The target is the same in test [20]. Briefly: SPR, His-FcγRI captured; CHO-produced; Expt 1 Rep 2.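 Further: antibody analyte injected at 100 µg/mL for 1 min.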
For test [21] the target is unchanged. Briefly: SPR, His-FcγRI captured; CHO-produced; Expt 2 Rep 1.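 Further: antibody analyte injected at 100 µg/mL for 1 min.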
The target is the same in test [22]. Briefly: SPR, His-FcγRI captured; CHO-produced; Expt 2 Rep 2.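 Further: antibody analyte injected at 100 µg/mL for 1 min.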
Test [23] shares this target. In words: SPR, His-FcγRI captured; Expt 2 Rep 2.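 Further: antibody analyte injected at 100 µg/mL for 1 min.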
Test [24] has the same target. In words: SPR, His-FcγRI captured; Expt 1.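 Further: SPR at 25 °C on anti-His antibody chip capturing FcγRI, Fc-variant antibodies injected at 100 µg/mL for 1 min, signal near end of injection minus buffer blank.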
In test [25] the target is T11, CD3D/CD3E heterodimer (Sino Biologicals Cat. No. CT038-H2508H) (human, UniProt P04234 22-105; P07766 23-126).
T11 construct: bought; also called CD3 antigen; human CD3
In words: ELISA, antigen coated. For orientation: In an ELISA, binding on a coated surface is turned into a signal by an enzyme label.

Test [26] addresses T11, CD3D/CD3E heterodimer (Sino Biologicals …). In words: ELISA, antigen coated, antibody 5 µg/mL.
The target in test [27] is T12, Sheep Fc-CD52 fusion protein (Absolute Antibody Cat. No. PR00205) (human, UniProt P31358 25-36).
T12 construct: bought; also called CD52 antigen; human CD52; not shown: sheep Fc
Briefly: ELISA, antigen coated, antibody 5 µg/mL.

From patent US20230235013A1 (MABSOLVE, published 2023) come the findings set out here.

T1 sequence (P08637 17-208 limits assumed): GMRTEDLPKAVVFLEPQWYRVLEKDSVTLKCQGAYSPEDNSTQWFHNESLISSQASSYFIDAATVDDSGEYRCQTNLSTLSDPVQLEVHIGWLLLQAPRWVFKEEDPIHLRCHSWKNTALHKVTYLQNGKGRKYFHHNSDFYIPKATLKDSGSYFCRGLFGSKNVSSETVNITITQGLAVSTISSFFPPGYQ

B1: anti-CD20 (rituximab) human IgG1 wild-type reference (antibody)
heavy: not shown
light: QIVLSQSPAILSASPGEKVTMTCRASSSVSYIHWFQQKPGSSPKPWIYATSNLASGVPVRFSGSGSGTSYSLTISRVEAEDAATYYCQQWTSNPPTFGGGTKLEIKRTVAAPSVFIFPPSDEQLKSGTASVVCLLNNFYPREAKVQWKVDNALQSGNSQESVTEQDSKDSTYSLSSTLTLSKADYEKHKVYACEVTHQGLSSPVTKSFNRGEC
notes: 2-1 and 10.0 are separate lots from HEK293; also called 2-1; 10.0
As for B1, the “Corrected response (RU)” value in test [1] is 588 RU; in test [2], 1440 RU; in test [4], 2570 RU; in [5], 2600 RU; in test [6], 647 RU; in test [7] it was 650 RU. Further, the “Corrected response (RU)” value was found to be 2370 RU in test [8]; 2380 RU in [9]; 1460 RU in [10]; 3020 RU in test [11]; 1790 RU in [12]; 2220 RU in test [13]. Also, the “Corrected response (RU)” value in test [14] was 2770 RU; in test [15], 345 RU; in test [16] it was 175 RU; in [17], 889 RU; in test [18] it was 501 RU; in test [19], 2120 RU. In addition, the “Corrected response (RU)” value stood at 2180 RU in [20], 1350 RU in test [21] and 1390 RU in [22]. In test [3], the “Corrected response (RU), Mean” value stood at 2590 RU.

B2: anti-CD20 human IgG1 L234A/L235A (LALA) (antibody)
heavy: not shown
light: B1 light
notes: 2-65 and 10.16 are separate lots; also called 2-65; 10.16
For the molecule B2, the “Corrected response (RU)” value in test [2] is 1390 RU; in [6], 612 RU; in test [7], 614 RU; in [8], 752 RU; in test [9] it was 654 RU; in test [10], 524 RU. Moreover, the “Corrected response (RU)” value was determined as 478 RU in test [23]; 832 RU in test [11]; 6.3 RU in test [12]; 2.3 RU in [13]; 141 RU in [14]; 21.8 RU in test [15]. Besides, the “Corrected response (RU)” value in test [16] was 13.2 RU; in test [17], 57.4 RU; in test [18], 16 RU; in test [19], 597 RU; in test [20], 577 RU; in test [21], 452 RU. Moreover, the “Corrected response (RU)” value in test [22] was 440 RU.

B3: anti-CD20 human IgG1 L234A/L235A/P329G (LALAPG reference) (antibody)
heavy: not shown
light: B1 light
notes: also called 2-66
As for B3, the “Corrected response (RU)” value in [2] was 1270 RU; in test [6], 543 RU; in test [7], 557 RU; in test [8] it was 53.4 RU; in test [9] it was 40.7 RU; in test [10], 62.4 RU. The “Corrected response (RU)” value was 49.5 RU in [23]; 72.9 RU in test [11]; -0.2 RU in test [12]; 0.5 RU in test [13]; 5.6 RU in [14]; 0.9 RU in [15]. For the same molecule, the “Corrected response (RU)” value in test [16] is -0.6 RU; in test [17], -0.4 RU; in test [18] it was -1.6 RU.

B4: anti-CD20 human IgG1 L234S/L235T/G236R (antibody)
heavy: QVQLQQPGAELVKPGASVKMSCKASGYTFTSYNMHWVKQTPGRGLEWIGAIYPGNGDTSYNQKFKGKATLTADKSSSTAYMQLSSLTSEDSAVYYCARSTYYGGDWYFNVWGAGTTVTVSSASTKGPSVFPLAPSSKSTSGGTAALGCLVKDYFPEPVTVSWNSGALTSGVHTFPAVLQSSGLYSLSSVVTVPSSSLGTQTYICNVNHKPSNTKVDKKVEPKSCDKTHTCPPCPAPESTRGPSVFLFPPKPKDTLMISRTPEVTCVVVDVSHEDPEVKFNWYVDGVEVHNAKTKPREEQYNSTYRVVSVLTVLHQDWLNGKEYKCKVSNKALPAPIEKTISKAKGQPREPQVYTLPPSRDELTKNQVSLTCLVKGFYPSDIAVEWESNGQPENNYKTTPPVLDSDGSFFLYSKLTVDKSRWQQGNVFSCSVMHEALHNHYTQKSLSLSPGK
light: B1 light
notes: also called 2-52; 1-150
On to B4, for which the “Corrected response (RU), Mean” value in test [3] amounted to 0.6 RU. In addition, the “Corrected response (RU)” value was -0.5 RU in [24]; 0.3 RU in test [4]; -23.8 RU in test [8]; -12.1 RU in [9]; -1 RU in test [10]; -23.4 RU in [19]. For the same molecule, the “Corrected response (RU)” value in test [20] is -20.7 RU; in [21] it was -9.2 RU; in test [22], -8.9 RU.

B5: anti-CD52 (alemtuzumab variable regions) human IgG1 wild type reference (antibody)
heavy: not shown
light: not shown
notes: also called 4-1; wild-type CD52 antibody
As to B5, in test [25], the binding result is “no binding (tested: 5 µg/mL)”. For the same molecule, the “Mean Absorbance” value in test [26] came to 0.009 absorbance; in test [27] it was 1.53 absorbance.
